Assay results from patent publication US20260132178A1.

What was measured:
IL10 receptor = IL10 receptor (UniProt Q13651); assay: cell-based or functional assay
IL4 (type II) receptor = IL4 (type II) receptor (UniProt P24394); assay: cell-based or functional assay
Chain of IL4 (type II) receptor (P24394 26-825 limits assumed, chain 1 of 2): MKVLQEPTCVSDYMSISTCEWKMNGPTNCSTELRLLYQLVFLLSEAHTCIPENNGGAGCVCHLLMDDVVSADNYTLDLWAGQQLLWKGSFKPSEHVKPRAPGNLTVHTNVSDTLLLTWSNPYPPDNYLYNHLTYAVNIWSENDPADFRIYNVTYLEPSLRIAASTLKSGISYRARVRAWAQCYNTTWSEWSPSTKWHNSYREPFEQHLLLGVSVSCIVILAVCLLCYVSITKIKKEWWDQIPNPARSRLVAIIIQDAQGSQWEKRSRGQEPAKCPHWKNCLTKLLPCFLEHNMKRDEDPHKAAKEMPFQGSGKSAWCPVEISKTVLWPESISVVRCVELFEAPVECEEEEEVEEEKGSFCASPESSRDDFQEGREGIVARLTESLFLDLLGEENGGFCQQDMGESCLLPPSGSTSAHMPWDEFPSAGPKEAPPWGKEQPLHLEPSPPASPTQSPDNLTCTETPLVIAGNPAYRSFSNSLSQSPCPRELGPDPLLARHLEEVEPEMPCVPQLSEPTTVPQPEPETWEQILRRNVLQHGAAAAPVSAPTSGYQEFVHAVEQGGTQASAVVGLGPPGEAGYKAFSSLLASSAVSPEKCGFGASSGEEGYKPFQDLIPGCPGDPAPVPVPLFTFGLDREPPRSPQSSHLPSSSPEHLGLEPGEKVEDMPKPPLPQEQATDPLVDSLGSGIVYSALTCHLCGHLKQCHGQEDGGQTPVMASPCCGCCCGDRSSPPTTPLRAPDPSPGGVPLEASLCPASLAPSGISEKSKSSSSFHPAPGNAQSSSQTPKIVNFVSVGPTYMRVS
Chain of IL4 (type II) receptor (P78552 22-427 limits assumed, chain 2 of 2, further chain): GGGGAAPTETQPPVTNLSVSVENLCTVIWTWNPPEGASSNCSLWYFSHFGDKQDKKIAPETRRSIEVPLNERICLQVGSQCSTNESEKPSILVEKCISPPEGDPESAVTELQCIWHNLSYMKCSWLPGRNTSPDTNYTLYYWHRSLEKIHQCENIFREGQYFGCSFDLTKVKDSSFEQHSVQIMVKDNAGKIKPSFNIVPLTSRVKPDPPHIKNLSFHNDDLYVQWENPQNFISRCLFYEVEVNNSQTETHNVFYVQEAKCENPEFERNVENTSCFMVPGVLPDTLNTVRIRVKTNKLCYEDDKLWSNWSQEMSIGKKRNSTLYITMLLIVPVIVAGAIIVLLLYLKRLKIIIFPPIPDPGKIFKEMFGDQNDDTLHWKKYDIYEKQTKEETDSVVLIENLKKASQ

Chain of IL10 receptor (Q13651 22-578 limits assumed, chain 1 of 2): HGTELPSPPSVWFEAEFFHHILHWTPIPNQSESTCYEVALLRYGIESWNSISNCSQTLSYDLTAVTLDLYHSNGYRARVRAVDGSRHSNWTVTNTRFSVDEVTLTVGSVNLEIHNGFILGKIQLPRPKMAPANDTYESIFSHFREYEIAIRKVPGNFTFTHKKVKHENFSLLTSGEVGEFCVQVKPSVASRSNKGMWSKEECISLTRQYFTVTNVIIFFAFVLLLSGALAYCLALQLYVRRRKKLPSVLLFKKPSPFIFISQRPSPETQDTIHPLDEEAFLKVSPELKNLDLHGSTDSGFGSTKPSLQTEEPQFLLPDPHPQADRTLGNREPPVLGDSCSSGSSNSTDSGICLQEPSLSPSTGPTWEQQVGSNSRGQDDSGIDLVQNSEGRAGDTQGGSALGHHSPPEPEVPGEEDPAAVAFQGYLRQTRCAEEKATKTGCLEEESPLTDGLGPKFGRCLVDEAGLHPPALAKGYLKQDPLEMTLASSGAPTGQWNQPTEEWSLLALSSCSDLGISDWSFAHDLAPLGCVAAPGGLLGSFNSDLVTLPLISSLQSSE
Chain of IL10 receptor (Q08334 20-325 limits assumed, chain 2 of 2, further chain): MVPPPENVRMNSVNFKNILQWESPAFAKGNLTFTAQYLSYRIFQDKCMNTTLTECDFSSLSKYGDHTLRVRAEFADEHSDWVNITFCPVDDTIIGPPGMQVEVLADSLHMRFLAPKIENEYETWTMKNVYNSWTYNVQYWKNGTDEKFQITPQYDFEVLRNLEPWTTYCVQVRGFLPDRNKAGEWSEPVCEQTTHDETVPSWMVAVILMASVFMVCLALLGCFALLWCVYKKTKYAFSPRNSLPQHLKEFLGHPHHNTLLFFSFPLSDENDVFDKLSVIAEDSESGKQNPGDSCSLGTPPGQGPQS

| HEK-Blue IL10 EC50 (STAT-3 mediated SEAP expression) (IL10 receptor) [nM] | HEK-Blue IL4/13 EC50 (STAT6-induced SEAP expression) (IL4 (type II) receptor) [nM] | Substance |
| --- | --- | --- |
| 0.0264 |  | IL10 (from UniProt P22301 19-178) (ligand) |
|  | 0.033 | IL13 (from UniProt P35225 33-146) (ligand) |
